Reference: patent US20120269734

Legend:
[1] = system: kemptide (substrate of PKA), conjugated to the bioluminescent protein Luc8 as in the method of FIG. 21b
[2] = molecular target: T1, Luc8 fusion protein (Luc8-PLGVR-6xHis)
T1 chain: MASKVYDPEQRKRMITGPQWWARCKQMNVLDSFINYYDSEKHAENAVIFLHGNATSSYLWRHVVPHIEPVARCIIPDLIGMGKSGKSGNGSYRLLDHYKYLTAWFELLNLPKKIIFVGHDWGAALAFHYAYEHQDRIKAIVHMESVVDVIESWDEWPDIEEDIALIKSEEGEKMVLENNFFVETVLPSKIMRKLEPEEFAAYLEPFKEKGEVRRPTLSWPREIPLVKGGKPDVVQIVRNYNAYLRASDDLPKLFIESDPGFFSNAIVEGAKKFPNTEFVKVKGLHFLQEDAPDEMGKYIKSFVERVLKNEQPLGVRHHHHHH

Question: What does the source list for Protein Kinase A (PKA)?
Answer: BRET ratio after the PKA phosphorylation (method of FIG. 21b) [1]: The BRET ratio was increased from 0.15 to 0.47 after the PKA phosphorylation of the substrate kemptide; BRET ratio before the PKA phosphorylation (method of FIG. 21b) [1]: The BRET ratio was increased from 0.15 to 0.47 after the PKA phosphorylation of the substrate kemptide

B1: active human recombinant MMP-2 (CalBiochem) (protein)
chain: YNFFPRKPKWDKNQITYRIIGYTPDLDPETVDDAFARAFQVWSDVTPLRFSRIHDGEADIMINFGRWEHGDGYPFDGKDGLLAHAFAPGTGVGGDSHFDDDELWTLGEGQVVRVKYGNADGEYCKFPFLFNGKEYNSCTDTGRSDGFLWCSTTYNFEKDGKYGFCPHEALFTMGGNAEGQPCKFPFRFQGTSYDSCTTEGRTDGYRWCGTTEDYDRDKKYGFCPETAMSTVGGNSEGAPCVFPFTFLGNKYESCTSAGRSDGKMWCATTANYDDDRKWGFCPDQGYSLFLVAAHEFGHAMGLEHSQDPGALMAPIYTYTKNFRLSQDDIKGIQELYGASPDIDLGTGPTPTLGPVTPEICKQDIVFDGIAQIRGEIFFFKDRFIWRTVTPRDKPMGPLLVATFWPELPEKIDAVYEAPQEEKAVFFAGNEYWIYSASTLERGYPKPLTSLGLPPDVQRVDAAFNWSKNKKTYIFAGDKFWRYNEVKKKMDPGFPKLIADAWNAIPDNLDAVVDLQGGGHSYFFKGAYYLKLENQSLKSVKFGSIKSDWLGC
Question: How did the “BRET ratio after 24 hours at 22° C., MMP-2 at 20 ng/mL (~300 pM)” value [2] turn out when B1 was run?
Answer: the BRET ratio decreased by ~20% from 1.6 to 1.3 for a concentration of MMP-2 of 20 ng/mL (~300 pM)

Question: And the “BRET ratio at the start, MMP-2 at 20 ng/mL (~300 pM)” value [2]?
Answer: the BRET ratio decreased by ~20% from 1.6 to 1.3 for a concentration of MMP-2 of 20 ng/mL (~300 pM)

Question: And the “BRET ratio before the MMP-2 cleavage (t=0); fusion protein 16 µM, MMP-2 10 µg/mL, 22° C.” value [2]?
Answer: the BRET ratio was 1.64

Question: And the “BRET ratio within 30 minutes of incubation with MMP-2 (10 µg/mL)” value [2]?
Answer: Within 30 minutes, the BRET ratio dropped to 0.62

Question: And the “BRET ratio within 2 hours of incubation with MMP-2 (10 µg/mL)” value [2]?
Answer: the reaction was nearly complete within 2 hours with a BRET ratio of 0.21

Question: And the NuPAGE assay [2]?
Answer: NuPAGE assay detected a protein product with a smaller size, confirming the hydrolysis by MMP-2

Question: What about the “decrease of the BRET ratio after 24 hours at 22° C. with MMP-2 at 20 ng/mL (~300 pM)” value [2] of the same molecule?
Answer: the BRET ratio decreased by ~20% from 1.6 to 1.3 for a concentration of MMP-2 of 20 ng/mL (~300 pM)

Question: And the “gel electrophoresis (4-12% Bis-Tris denaturing gel, Coomassie)” value [2]?
Answer: Gel electrophoresis analysis confirmed the cleavage of the fusion protein by MMP-2
